Laboratory results: patent US8865657B2, “Compositions and methods for inactivating or suppressing inflammatory cells” (New York University, priority 2005, dated 2014)

Key:
[1] = system: Kupffer cells; test: cAMP radioimmunoassay, intracellular cAMP in Kupffer cells; assay type: cell-based, rat; conditions: for effect on cAMP level, agent alone: RAP 500 nM alone, lactoferrin 100 nM
Experimental: (§1) Liver cell isolation. […] The nonparenchymal cell-containing supernatant was saved.
(§2) Cell culture. […] HepG2 cells were used on day 3 after plating.
(§3) Cell treatment. […] Role of calcium and cyclic AMP. […] J Immunol 174: 2981-2989). […] IBMX was dissolved in dimethyl sulphoxide (DMSO).
(§4) cAMP radioimmunoassay. For cAMP determination, liver cell cultures were incubated in culture medium without FCS at 37° C. for 0-90 min. The cultures were then placed on ice, and the reaction was stopped by aspiration of the incubation medium followed by the addition of 1 ml of ice cold 65% (vol/vol) ethanol. The cells were scraped into Eppendorf tubes and centrifuged at 10000 g for 10 min at 4° C. The supernatants were dried in SC110 Speedvac Concentrator (Savant, Farmingdale, N.Y.) at room temperature, and the dried extracts were dissolved in assay buffer for cAMP determination with cAMP [^125I] Direct Biotrak Assay from Amersham Biosciences (Piscataway, N.J.), according to the instructions of the manufacturer. Samples were analyzed with a Beckman LS 6000 scintillation counter. The cAMP level in each sample was normalized to the protein concentration and expressed as fmol/μg of protein. Ethanol-precipitated cell pellets were diluted with 0.15 M NaOH and the protein concentration was measured with the Micro BCA Protein Assay Kit (Pierce Chemical Co., Rockford, Ill.) according to manufacturer's instructions.

[2] = system: Kupffer cells; test: Inositol-1,4,5-trisphosphate (IP3) assay in Kupffer cells; assay type: cell-based, rat; conditions: data not shown
Experimental: as §1, §2
Inositol-1,4,5-trisphosphate (IP3) assay. Intracellular IP3 levels were measured with a IP3 [^3H] Biotrak Assay (Amersham Biosciences, Piscataway, N.J.). Liver cells (3.0×10^6 per well) were incubated for 0, 30, 60, 120 sec with 100 nM CSP in RPMI-1640 containing 10 mM LiCI. The plates were then placed on ice, and the reaction was stopped by aspiration of the incubation medium followed by the addition of 20% ice-cold perchloric acid. After incubation on ice for 20 min, the cells were scraped into Eppendorf tubes. The precipitated protein was removed by centrifugation at 10000 g for 15 min at 4° C. The supernatant was neutralized to pH 7.5 by titrating with ice-cold 1.5 M KOH containing 60 mM HEPES buffer. The precipitated KClO4 was removed by centrifugation at 5000 g for 15 min at 4° C. Radioactivity in the supernatant was measured with a Beckman LS 6000 scintillation counter.

[3] = system: HepG2 cells; test: cAMP radioimmunoassay, intracellular cAMP in HepG2 cells; assay type: cell-based, human
Experimental: as §2, §3, §4

[4] = system: Hepatocytes; test: cAMP radioimmunoassay, intracellular cAMP in hepatocytes; assay type: cell-based, rat
Experimental: as §1, §2, §3, §4

[5] = system: Liver endothelial cells; test: cAMP radioimmunoassay, intracellular cAMP in liver endothelial cells; assay type: cell-based, rat
Experimental: as §1, §2, §3, §4

B1: RAP: Recombinant human RAP, universal inhibitor of ligand binding to LRP-1 (protein, UniProt P30533 35-357, looked up)
Alpha-2-macroglobulin …: YSREKNQPKPSPKRESGEEFRMEKLNQLWEKAQRLHLPPVRLAELHADLKIQERDELAWKKLKLDGLDEDGEKEARLIRNLNVILAKYGLDGKKDARQVTSNSLSGTQEDGLDDPRLEKLWHKAKTSGKFSGEELDKLWREFLHHKEKVHEYNVLLETLSRTEEIHENVISPSDLSDIKGSVLHSRHTELKEKLRSINQGLDRLRRVSHQGYSTEAEFEEPRVIDLWDLAQSANLTDKELEAFREELKHFEAKIEKHNHYQKQLEIAHEKLRHAESVGDGERVSRSREKHALLEGRTKELGYTVKKHLQDLSGRISRARHNEL
- effect on cAMP level, agent alone ([1]; Kupffer cells): had no effect
- effect on the CSP-induced generation of cAMP ([1]; added 10 min before 50 nM CSP (30 min), RAP 500 nM): blocked
- effect on IP3, agent alone ([2]; RAP alone): had no effect
- effect on the CSP-induced IP3 increase ([2]; preincubation 10 min with 500 nM RAP before CSP): prevented this increase

B2: Lactoferrin: lactoferrin (LF; from bovine colostrum), another LRP-1 ligand (protein, UniProt P24627 20-708, looked up)
Lactotransferrin: APRKNVRWCTISQPEWFKCRRWQWRMKKLGAPSITCVRRAFALECIRAIAEKKADAVTLDGGMVFEAGRDPYKLRPVAAEIYGTKESPQTHYYAVAVVKKGSNFQLDQLQGRKSCHTGLGRSAGWIIPMGILRPYLSWTESLEPLQGAVAKFFSASCVPCIDRQAYPNLCQLCKGEGENQCACSSREPYFGYSGAFKCLQDGAGDVAFVKETTVFENLPEKADRDQYELLCLNNSRAPVDAFKECHLAQVPSHAVVARSVDGKEDLIWKLLSKAQEKFGKNKSRSFQLFGSPPGQRDLLFKDSALGFLRIPSKVDSALYLGSRYLTTLKNLRETAEEVKARYTRVVWCAVGPEEQKKCQQWSQQSGQNVTCATASTTDDCIVLVLKGEADALNLDGGYIYTAGKCGLVPVLAENRKSSKHSSLDCVLRPTEGYLAVAVVKKANEGLTWNSLKDKKSCHTAVDRTAGWNIPMGLIVNQTGSCAFDEFFSQSCAPGADPKSRLCALCAGDDQGLDKCVPNSKEKYYGYTGAFRCLAEDVGDVAFVKNDTVWENTNGESTADWAKNLNREDFRLLCLDGTRKPVTEAQSCHLAVAPNHAVVSRSDRAAHVKQVLLHQQALFGKNGKNCPDKFCLFKSETKNLLFNDNTECLAKLGGRPTYEEYLGTEYVTAIANLKKCSTSPLLEACAFLTR
- cAMP ([1]; Kupffer cells, 100 nM lactoferrin, 30 min at 37° C., serum-free RPMI-1640, mean±S.E.): 14.10 ± 2.10 fmol/μg protein
- effect on cAMP level, agent alone ([1]; Kupffer cells): no significant effect
- cAMP ([3]; HepG2 cells, 100 nM lactoferrin, 30 min at 37° C., mean±S.E.): 6.50 ± 0.07 fmol/μg protein
- effect on cAMP concentration ([3]; human hepatoma cell line HepG2): no significant effect
- cAMP ([4]; Hepatocytes, 100 nM lactoferrin, 30 min at 37° C., mean±S.E.): 2.61 ± 0.09 fmol/μg protein
- effect on cAMP concentration ([4]; hepatocytes): no significant effect
- cAMP ([5]; Liver endothelial cells, 100 nM lactoferrin, 30 min at 37° C., mean±S.E.): 5.58 ± 0.30 fmol/μg protein
- effect on cAMP concentration ([5]; endothelial cells): no significant effect
